According to paper PMC7907450:

Legend:
[1] = tested on: 30S ribosomal subunit initiation complex without IF3 (IF1, IF2, BPY-Met-tRNAfMet); assay: MST; conditions: MST: buffer TAKM7 (7 mM Mg2+; full composition not in material), 30 min at 37 C, A-site peptidyl-tRNA: buffer TAKM with 7-20 mM Mg2+, nitrocellulose …
[2] = tested on: 30S ribosomal subunit initiation complex with IF1, IF2, IF3 and elongator BPY-Phe-tRNAPhe; assay: MST; conditions: 60 uM amicoumacin A, MST: buffer TAKM7 (7 mM Mg2+; full composition not in material), 30 min at 37 C, A-site peptidyl-tRNA: buffer TAKM with 7-20 mM Mg2+, nitrocellulose …
[3] = tested on: 30S ribosomal subunit initiation complex with IF1, IF2, IF3 and BPY-Met-tRNAfMet; assay: MST; conditions: MST: buffer TAKM7 (7 mM Mg2+; full composition not in material), 30 min at 37 C, A-site peptidyl-tRNA: buffer TAKM with 7-20 mM Mg2+, nitrocellulose …
[4] = tested on: 70S ribosome pretranslocation complex, deacylated tRNAfMet in P site, A site; assay: nitrocellulose filter binding, koff/kon; conditions: 7 mM Mg2+, aminoacylated with fMet-Val dipeptide, MST: buffer TAKM7 (7 mM Mg2+; full composition not in material), 30 min at 37 C, A-site peptidyl-tRNA: buffer TAKM with 7-20 mM Mg2+

model mRNA AUG (Met-Phe) showed a Kd ([1]; no IF3, amicoumacin A) of 77 nM, a Kd ([1]; no IF3, no antibiotic) of 1280 nM and a Kd [2] of 940 nM. For the same substance, the Kd ([3]; 30 uM edeine) was 568 nM, the Kd ([3]; 60 uM amicoumacin A) was 169 nM and the Kd ([3]; 60 uM kasugamycin) was 59 nM. It also gave a Kd ([3]; no antibiotic) of 18 nM.
With fMet-[14C]Val-tRNAVal the Kd ([4]; 30 uM amicoumacin A) was 461 nM and the Kd ([4]; no antibiotic) was 688 nM.
In the case of model mRNA UUC start codon, the Kd ([1]; no IF3, amicoumacin A) is reported as 587 nM, the Kd ([1]; no IF3, no antibiotic) is reported as 1270 nM and the Kd ([3]; 60 uM amicoumacin A) is reported as 584 nM.
